Data published in publication PMC12826058.
Substitutions are numbered along the chain they refer to. pKd: −log10 of the molar value.

Tests used:
Experiment in all cases: SPR
[1] = test system: His6-AdiY (Escherichia coli K-12 MG1655); conditions: pH 6.0, phosphate; 1:4 DNA:protein; SPR (Biacore T200, SA chip), 25 C, 50 mM sodium phosphate pH 6.0-7.0 (50 mM citrate at pH 5.5 and 5.8), 250 mM NaCl, 2% glycerol, 2 mM DTT, 0.005% P20; 1:1 …
[2] = target: T1, His6-AdiY-H34A/H60A H34A;H60A (Escherichia coli K-12 MG1655) (UniProt P33234); conditions: SPR (Biacore T200, SA chip), 25 C, 50 mM sodium phosphate pH 6.0-7.0 (50 mM citrate at pH 5.5 and 5.8), 250 mM NaCl, 2% glycerol, 2 mM DTT, 0.005% P20; 1:1 …
T1 sequence: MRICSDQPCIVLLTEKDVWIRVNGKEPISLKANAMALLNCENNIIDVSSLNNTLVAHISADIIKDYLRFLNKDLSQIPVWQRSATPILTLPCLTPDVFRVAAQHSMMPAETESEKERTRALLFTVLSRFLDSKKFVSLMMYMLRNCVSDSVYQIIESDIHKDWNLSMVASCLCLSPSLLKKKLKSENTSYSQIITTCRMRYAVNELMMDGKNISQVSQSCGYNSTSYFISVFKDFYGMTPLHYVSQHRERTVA

[3] = target: T2, His6-AdiY (Escherichia coli K-12 MG1655) (UniProt P33234); conditions: SPR (Biacore T200, SA chip), 25 C, 50 mM sodium phosphate pH 6.0-7.0 (50 mM citrate at pH 5.5 and 5.8), 250 mM NaCl, 2% glycerol, 2 mM DTT, 0.005% P20; 1:1 …
T2 sequence: T1 sequence with A34H, A60H

Substance | pKd [1] | binding [2] | pKd [3] | binding [3]
PadiC (adiC promoter) | 6.92 |  |  | 
PadiA (adiA promoter) | 6.77 |  |  | 
TGCTTACCCGGTTATGAAGGAATCTTCGTTGCGGGCAAGTATCTTCCGGCCTTTTCGGGCTGTAAAGCGCGTGAAAAACAAACATTTTTGAAATATTTAGTTTTATAAACAATACGTTATGTGATTATTTTAAATTATTTTCACTGCTTATTATCGACGGCTAAACTATTTTTTTGGCTGATACTGATATCGTCT (double strand) [PadiA (adiA promoter)] |  | no binding | 6.77 | binds
TCTACGGTATGACGCCGCTGCATTATGTTAGTCAGCACAGAGAACGCACTGTCGCCTGATTTTTAACCTTAACGAAGAGCTATATTAATAACGGCATCAGCGATAACCCGGTCGATAATAATTCAACTATCGAATGCAGGCGTATGATATGACGTAATTTATTGTCACGAAGCTCGCCTTCGCAGGAGTTTAATT (double strand) [PadiC (adiC promoter)] |  | no binding | 6.92 | binds
